Assay [1] concerns the target T1, mouse NGF (mouse, UniProt P01139 122-241, limits assumed).
T1 construct: Coated on ELISA plates; also called murine NGF
As to the kind of experiment: ELISA, CHO supernatant on coated NGF, anti-canine IgG-HRP. How it is done: Combinations of caninised heavy and light chain cDNAs were transfected into CHO cells, the supernatants harvested and reacted in ELISA format with either canine or murine NGF. Following incubation and wash steps, the bound canine antibody was detected by reactivity with a goat-anti canine IgG specific polyclonal antibody linked to horseradish peroxidase (HRP) and developed using TMB. The optical density of the resulting product was measured at 450 nm and compared with that from mock empty vector transfected supernatant (denoted as “Mock” in FIG. 1).
A general note: In an ELISA, binding on a coated surface is turned into a signal by an enzyme label.

For assay [2], the target named is T2, complement C1q (from human serum) (human, UniProt P02745 23-245; P02746 28-253; P02747 29-245).
T2 construct: Native C1q in human serum diluted 1/100
Description: C1q ELISA: antibody captured on mouse NGF-coated plate, human serum, anti-C1q-HRP. As to the method:
CHO cell transfectant supernatants from Example 2 were incubated with plates coated with […] NGF to capture the antibodies. The plates were washed and then incubated with human serum and bound complement C1q was measured by binding of anti-human C1q polyclonal antibody HRP and developed as above.
Plates were coated with 100 μl/well of 5 μg/ml mouse NGF and blocked with 5% BSA/PBS. Coated wells were incubated for 1 hour at room temperature with cell culture supernatants, containing recombinant caninised anti-NGF IgG, diluted in PBS/1% BSA (100 μl/well). The plates were washed and incubated for 1 hour at room temperature with 100 μl/well of human serum diluted 1/100 in veronal buffered saline containing 0.5 mM MgCl₂, 2 mM CaCl₂, 0.05% Tween-20, 0.1% gelatin and 0.5% BSA. After washing, plates were incubated with 100 μl of a 1/800 dilution of sheep anti-C1q-HRP (Serotec) in PBS/1% BSA. After washing, plates were developed by the addition of 100 μl TMB substrate (Thermo Scientific). Development was stopped by the addition of 100 μl of 2N H₂SO₄ and absorbance read at 450 nm.

Assay [3] deals with T1, mouse NGF. Description: binding ELISA to mouse NGF, CHO supernatants undiluted and 1/100. As to the method:
A comparison of the binding of N-glycosylated and aglycosylated variants of anti-canine-NGF monoclonal antibodies to NGF with HCB and HCC heavy chain isotypes was carried out. Expression vectors encoding the light and heavy chain pairs described by SEQ ID NO:5 and SEQ ID NO:7 (HCB), SEQ ID NO:5 and SEQ ID NO:16 (HCB*), SEQ ID NO:5 and SEQ ID NO:8 (HCC), or SEQ ID NO:5 and SEQ ID NO:17 (HCC*) were co-transfected into CHO cells and the supernatants compared by binding ELISA to mouse NGF.

Assay [4] deals with T1, mouse NGF. As to the kind of experiment: binding ELISA to mouse NGF, CHO supernatant dilutions.
The target in assay [5] is NGF (species not stated, TF-1 cell proliferation assay). As to the kind of experiment: cell-based or functional assay.
Assay [6] addresses T2, complement C1q (from human serum). As to the kind of experiment: C1q ELISA: antibody captured on NGF-coated plate, human serum, anti-C1q-HRP.

Substitutions are numbered along the chain they refer to.

T1 sequence (P01139 122-241 limits assumed): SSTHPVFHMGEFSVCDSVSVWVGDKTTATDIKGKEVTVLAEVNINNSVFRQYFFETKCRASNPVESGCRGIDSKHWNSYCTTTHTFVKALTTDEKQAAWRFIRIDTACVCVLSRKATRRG
T2 sequence (P02745 23-245 limits assumed, chain 1 of 3): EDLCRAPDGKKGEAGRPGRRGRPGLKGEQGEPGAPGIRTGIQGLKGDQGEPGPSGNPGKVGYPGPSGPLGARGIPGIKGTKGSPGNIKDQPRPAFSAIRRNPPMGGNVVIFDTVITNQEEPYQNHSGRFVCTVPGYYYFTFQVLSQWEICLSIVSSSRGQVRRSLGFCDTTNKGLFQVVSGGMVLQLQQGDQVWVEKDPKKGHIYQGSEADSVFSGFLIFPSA
T2 sequence (P02746 28-253 limits assumed, chain 2 of 3): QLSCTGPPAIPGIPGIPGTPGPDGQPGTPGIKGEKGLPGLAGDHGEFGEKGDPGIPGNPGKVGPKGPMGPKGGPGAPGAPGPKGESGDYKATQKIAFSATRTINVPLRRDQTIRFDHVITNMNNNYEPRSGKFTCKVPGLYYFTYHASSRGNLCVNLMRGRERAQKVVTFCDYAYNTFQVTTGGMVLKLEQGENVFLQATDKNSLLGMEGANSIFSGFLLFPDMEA
T2 sequence (P02747 29-245 limits assumed, chain 3 of 3): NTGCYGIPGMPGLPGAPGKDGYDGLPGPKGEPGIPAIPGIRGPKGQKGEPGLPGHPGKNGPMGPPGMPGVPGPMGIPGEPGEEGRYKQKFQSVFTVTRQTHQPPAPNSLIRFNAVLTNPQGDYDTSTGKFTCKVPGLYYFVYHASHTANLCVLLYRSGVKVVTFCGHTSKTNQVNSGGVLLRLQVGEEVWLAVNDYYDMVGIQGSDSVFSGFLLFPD

B1: caninised anti-NGF antibody comprising the caN-HCA heavy chain and caN-kLC light chain (antibody)
heavy: EVQLVESGGDLVNPGGTLTLSCVVSGFSLTNNNVNWVRQALGRGLEWVGGVWAGGATDYNSALKSRLTITRDTSKSTVFLKMHSLQSEDTATYYCARDGGYSSSTLYAMDAWGQGTLVTVSSASTTAPSVFPLAPSCGSTSGSTVALACLVSGYFPEPVTVSWNSGSLTSGVHTFPSVLQSSGLHSLSSMVTVPSSRWPSETFTCNVVHPASNTKVDKPVFNECRCTDTPPCPVPEPLGGPSVLIFPPKPKDILRITRTPEVTCVVLDLGREDPEVQISWFVDGKEVHTAKTQSREQQFNGTYRVVSVLPIEHQDWLTGKEFKCRVNHIDLPSPIERTISKARGRAHKPSVYVLPPSPKELSSSDTVSITCLIKDFYPPDIDVEWQSNGQQEPERKHRMTPPQLDEDGSYFLYSKLSVDKSRWQQGDPFTCAVMHETLQNHYTDLSLSHSPGK
light: DIQMTQSPASLSLSQEEKVTITCRASEDIYNALAWYQQKPGQAPKLLIYNTDTLHTGVPSRFSGSGSGTEYSLTINSLESEDVAVYFCQHYFHYPRTFGAGTKVELKRNDAQPAVYLFQPSPDQLHTGSASVVCLLNSFYPKDINVKWKVDGVIQDTGIQESVTEQDKDSTYSLSSTLTMSSTEYLSHELYSCEITHKSLPSTLIKSFQRSECQRVD
notes: Tested as CHO cell transfectant supernatant; also called A-HCA; caN-HCA+caN-kLC1
For B1, the binding result with mouse NGF [1] is on record as “binds”; in assay [2], “no binding”.

B2: caninised anti-NGF antibody comprising the caN-HCC heavy chain and a caN-kLC light chain (antibody)
heavy: EVQLVESGGDLVNPGGTLTLSCVVSGFSLTNNNVNWVRQALGRGLEWVGGVWAGGATDYNSALKSRLTITRDTSKSTVFLKMHSLQSEDTATYYCARDGGYSSSTLYAMDAWGQGTLVTVSSASTTAPSVFPLAPSCGSQSGSTVALACLVSGYIPEPVTVSWNSVSLTSGVHTFPSVLQSSGLYSLSSMVTVPSSRWPSETFTCNVAHPATNTKVDKPVAKECECKCNCNNCPCPGCGLLGGPSVFIFPPKPKDILVTARTPTVTCVVVDLDPENPEVQISWFVDSKQVQTANTQPREEQSNGTYRVVSVLPIGHQDWLSGKQFKCKVNNKALPSPIEEIISKTPGQAHQPNVYVLPPSRDEMSKNTVTLTCLVKDFFPPEIDVEWQSNGQQEPESKYRMTPPQLDEDGSYFLYSKLSVDKSRWQRGDTFICAVMHEALHNHYTQISLSHSPGK
light: B1 light
notes: Tested as CHO cell transfectant supernatant; also called C-HCC; caN-HCC+caN-kLC1
As to B2, the binding result (with mouse NGF [3]; in assay [2]) was “binds” in each case.

B3: caninised anti-NGF antibody comprising the caN-HCB heavy chain and the caN-kLC light chain (antibody)
heavy: EVQLVESGGDLVNPGGTLTLSCVVSGFSLTNNNVNWVRQALGRGLEWVGGVWAGGATDYNSALKSRLTITRDTSKSTVFLKMHSLQSEDTATYYCARDGGYSSSTLYAMDAWGQGTLVTVSSASTTAPSVFPLAPSCGSTSGSTVALACLVSGYFPEPVTVSWNSGSLTSGVHTFPSVLQSSGLYSLSSMVTVPSSRWPSETFTCNVAHPASKTKVDKPVPKRENGRVPRPPDCPKCPAPEMLGGPSVFIFPPKPKDTLLIARTPEVTCVVVDLDPEDPEVQISWFVDGKQMQTAKTQPREEQFNGTYRVVSVLPIGHQDWLKGKQFTCKVNNKALPSPIERTISKARGQAHQPSVYVLPPSREELSKNTVSLTCLIKDFYPPDIDVEWQSNGQQEPESKYRTTPPQLDEDGSYFLYSKLSVDKSRWQRGDTFICAVMHEALHNHYTQESLSHSPGK
light: B1 light
notes: Tested as CHO cell transfectant supernatant; also called caN-HCB+caN-kLC1
With B3, the binding result (in the assay with mouse NGF [4]; in assay [2]) was “binds” each time.

B4: caninised anti-NGF antibody comprising the caN-HCD heavy chain and caN-kLC light chain (antibody)
heavy: EVQLVESGGDLVNPGGTLTLSCVVSGFSLTNNNVNWVRQALGRGLEWVGGVWAGGATDYNSALKSRLTITRDTSKSTVFLKMHSLQSEDTATYYCARDGGYSSSTLYAMDAWGQGTLVTVSSASTTAPSVFPLAPSCGSTSGSTVALACLVSGYFPEPVTVSWNSGSLTSGVHTFPSVLQSSGLYSLSSTVTVPSSRWPSETFTCNVVHPASNTKVDKPVPKESTCKCISPCPVPESLGGPSVFIFPPKPKDILRITRTPEITCVVLDLGREDPEVQISWFVDGKEVHTAKTQPREQQFNSTYRVVSVLPIEHQDWLTGKEFKCRVNHIGLPSPIERTISKARGQAHQPSVYVLPPSPKELSSSDTVTLTCLIKDFYPPEIDVEWQSNGQPEPESKYHTTAPQLDEDGSYFLYSKLSVDKSRWQQGDTFTCAVMHEALQNHYTDLSLSHSPGK
light: B1 light
notes: also called D-HCD; caninised HCD type antibody
Consider B4, for which the binding result in assay [2] was “no binding”.

B5: variant caninised anti-NGF antibody (caN2) with light chain SEQ ID NO:10 (VL2 and canine kappa constant domain) and heavy chain SEQ ID NO:11 (HCA variant-VH2 … (antibody)
heavy: B1 heavy with K81Q, Q86R
light: B1 light with Q3V, Y71F, N76S, S80P, F87Y
notes: also called anti-canine NGF monoclonal antibody (canine HCA type heavy chain)
In the case of B5, in assay [5], the “IC50 in the TF-1 NGF neutralisation assay” value is 0.013 nM. In addition, the binding result with mouse NGF [4] is “binds”; in assay [6], “no binding (tested: 4, 2 and 1 ug/ml)”.

B6: aglycosylated variant anti-canine-NGF monoclonal antibody HCB* (SEQ ID NO:5 and SEQ ID NO:16) (antibody)
heavy: B3 heavy with N305A
light: B1 light
notes: Tested as CHO cell transfectant supernatant
As for B6, the figures for the binding result (with mouse NGF [3]; in assay [6]) were “binds” and “no binding”, respectively.

B7: aglycosylated variant anti-canine-NGF monoclonal antibody HCC* (SEQ ID NO:5 and SEQ ID NO:17) (antibody)
heavy: B2 heavy with N303A
light: B1 light
notes: as for B6
For the molecule B7, the binding result (in the assay with mouse NGF [3]; in assay [6]) was “binds” each time.
